Sequences and labels used below:
B1: Hex-[Cys(tMeBn(DOTA-AET))-Pro-Pro-Thr-Gln-Phe-Cys]-Ser-OH (peptide)
peptide: Hexanoyl-CPPTQFCS-OH
modifications: linker 1-7 via tMeBn(DOTA-AET)
notes: also called 3BP-3658
B2: Hex-[Cys(3MeBn)-Pro-Pro-Thr-Glu-Phe-Cys]-Asp-NH2 (peptide)
peptide: Hexanoyl-CPPTEFCD-NH2
modifications: linker 1-7 via mXylylene
SMILES: CCCCCC(=O)N[C@H]1CSCc2cccc(c2)CSC[C@@H](C(=O)N[C@@H](CC(=O)O)C(N)=O)NC(=O)[C@H](Cc2ccccc2)NC(=O)[C@H](CCC(=O)O)NC(=O)[C@H]([C@@H](C)O)NC(=O)[C@@H]2CCCN2C(=O)[C@@H]2CCCN2C1=O
notes: also called 3BP-3288
B3: Hex-[Cys(tMeBn(DOTA-AET))-Pro-Pro-Thr-Gln-Phe-Cys]-Gly-OH (peptide)
peptide: Hexanoyl-CPPTQFCG-OH
modifications: linker 1-7 via tMeBn(DOTA-AET)
notes: also called 3BP-3656
B4: Hex-[Cys(3MeBn)-Pro-Pro-Thr-Glu-Phe-Cys]-Asp-Pamb-Arg-NH2 (peptide)
peptide: Hexanoyl-CPPTEFCD[4Amb]R-NH2
modifications: linker 1-7 via mXylylene
SMILES: CCCCCC(=O)N[C@H]1CSCc2cccc(c2)CSC[C@@H](C(=O)N[C@@H](CC(=O)O)C(=O)NCc2ccc(C(=O)N[C@@H](CCCNC(=N)N)C(N)=O)cc2)NC(=O)[C@H](Cc2ccccc2)NC(=O)[C@H](CCC(=O)O)NC(=O)[C@H]([C@@H](C)O)NC(=O)[C@@H]2CCCN2C(=O)[C@@H]2CCCN2C1=O
notes: also called 3BP-3301
B5: Ac-Met-[Cys(3MeBn)-Pro-Pro-Thr-Glu-Phe-Cys]-Asp-His-Phe-Arg-Asp-NH2 (peptide)
peptide: Ac-MCPPTEFCDHFRD-NH2
modifications: linker 2-8 via mXylylene
SMILES: CSCC[C@H](NC(C)=O)C(=O)N[C@H]1CSCc2cccc(c2)CSC[C@@H](C(=O)N[C@@H](CC(=O)O)C(=O)N[C@@H](Cc2c[nH]cn2)C(=O)N[C@@H](Cc2ccccc2)C(=O)N[C@@H](CCCNC(=N)N)C(=O)N[C@@H](CC(=O)O)C(N)=O)NC(=O)[C@H](Cc2ccccc2)NC(=O)[C@H](CCC(=O)O)NC(=O)[C@H]([C@@H](C)O)NC(=O)[C@@H]2CCCN2C(=O)[C@@H]2CCCN2C1=O
notes: also called 3BP-2975
B6: Hex-[Cys(3MeBn)-Pro-Pro-Thr-Glu-Phe-Cys]-Asp-Mamb-Arg-NH2 (peptide)
peptide: Hexanoyl-CPPTEFCD[3Amb]R-NH2
modifications: linker 1-7 via mXylylene
SMILES: CCCCCC(=O)N[C@H]1CSCc2cccc(c2)CSC[C@@H](C(=O)N[C@@H](CC(=O)O)C(=O)NCc2cccc(C(=O)N[C@@H](CCCNC(=N)N)C(N)=O)c2)NC(=O)[C@H](Cc2ccccc2)NC(=O)[C@H](CCC(=O)O)NC(=O)[C@H]([C@@H](C)O)NC(=O)[C@@H]2CCCN2C(=O)[C@@H]2CCCN2C1=O
notes: also called 3BP-3324
B7: Hex-[Cys(tMeBn(InDOTA-PP))-Pro-Pro-Thr-Gln-Phe-Cys]-Asp-NH2 (peptide)
peptide: Hexanoyl-CPPTQFCD-NH2
modifications: linker 1-7 via tMeBn(InDOTA-PP); also: In complex (InDOTA)
notes: also called 3BP-3590
B8: DOTA-Ttds-Nle-[Cys(3MeBn)-Pro-Pro-Thr-Gln-Phe-Cys]-Asp-NH2 (peptide)
peptide: {DOTA}-[Ttds(4)][Nle]CPPTQFCD-NH2
modifications: linker 3-9 via mXylylene
SMILES: CCCC[C@H](NC(=O)CCC(=O)NCCCOCCOCCOCCCNC(=O)CN1CCN(CC(=O)O)CCN(CC(=O)O)CCN(CC(=O)O)CC1)C(=O)N[C@H]1CSCc2cccc(c2)CSC[C@@H](C(=O)N[C@@H](CC(=O)O)C(N)=O)NC(=O)[C@H](Cc2ccccc2)NC(=O)[C@H](CCC(N)=O)NC(=O)[C@H]([C@@H](C)O)NC(=O)[C@@H]2CCCN2C(=O)[C@@H]2CCCN2C1=O
notes: also called 3BP-3401
B9: Hex-[Cys(3MeBn)-Pro-Pro-Thr-Glu-Phe-Cys]-Asp-His-Phe-Arg-Asp-NH2 (peptide)
peptide: Hexanoyl-CPPTEFCDHFRD-NH2
modifications: linker 1-7 via mXylylene
SMILES: CCCCCC(=O)N[C@H]1CSCc2cccc(c2)CSC[C@@H](C(=O)N[C@@H](CC(=O)O)C(=O)N[C@@H](Cc2c[nH]cn2)C(=O)N[C@@H](Cc2ccccc2)C(=O)N[C@@H](CCCNC(=N)N)C(=O)N[C@@H](CC(=O)O)C(N)=O)NC(=O)[C@H](Cc2ccccc2)NC(=O)[C@H](CCC(=O)O)NC(=O)[C@H]([C@@H](C)O)NC(=O)[C@@H]2CCCN2C(=O)[C@@H]2CCCN2C1=O
B10: Hex-[Cys(tMeBn(DOTA-AET))-Pro-Pro-Thr-Glu-Phe-Cys]-NH2 (peptide)
peptide: Hexanoyl-CPPTEFC-NH2
modifications: linker 1-7 via tMeBn(DOTA-AET)
notes: also called 3BP-3653

Numbered stars: 1 amine (or outer) side, 2 acyl side, 3 side chain; on linkers, the order of the positions; unused ones are H or OH. Bridge positions count the residues as written; N and C are the ends. Square brackets hold non-standard residues; d marks the D form. Primed or numbered codes have the meaning given here. * marks the point of attachment. Ttds(4) = spacer between chelator and peptide, O=C(CCC(=O)[*:2])NCCCOCCOCCOCCCN[*:1]; DOTA = O=C(O)CN1CCN(CC(=O)O)CCN(CC(=O)*)CCN(CC(=O)O)CC1; mXylylene = c1cc(C[*:1])cc(C[*:2])c1; 3Amb = NCc1cccc(C(=O)O)c1; 4Amb = NCc1ccc(C(=O)O)cc1; Nle = CCCC[C@H](N)C(=O)O; Hexanoyl = CCCCCC(=O)*

The target in the experiment is T1, Recombinant human FAP (R&D systems, #3715-SE) (human, UniProt Q12884 26-760).
T1 construct: bought; in SPR captured on immobilized anti-FAP antibody MAB3715; also called rhFAP; human recombinant FAP
T1 sequence (Q12884 26-760 limits assumed): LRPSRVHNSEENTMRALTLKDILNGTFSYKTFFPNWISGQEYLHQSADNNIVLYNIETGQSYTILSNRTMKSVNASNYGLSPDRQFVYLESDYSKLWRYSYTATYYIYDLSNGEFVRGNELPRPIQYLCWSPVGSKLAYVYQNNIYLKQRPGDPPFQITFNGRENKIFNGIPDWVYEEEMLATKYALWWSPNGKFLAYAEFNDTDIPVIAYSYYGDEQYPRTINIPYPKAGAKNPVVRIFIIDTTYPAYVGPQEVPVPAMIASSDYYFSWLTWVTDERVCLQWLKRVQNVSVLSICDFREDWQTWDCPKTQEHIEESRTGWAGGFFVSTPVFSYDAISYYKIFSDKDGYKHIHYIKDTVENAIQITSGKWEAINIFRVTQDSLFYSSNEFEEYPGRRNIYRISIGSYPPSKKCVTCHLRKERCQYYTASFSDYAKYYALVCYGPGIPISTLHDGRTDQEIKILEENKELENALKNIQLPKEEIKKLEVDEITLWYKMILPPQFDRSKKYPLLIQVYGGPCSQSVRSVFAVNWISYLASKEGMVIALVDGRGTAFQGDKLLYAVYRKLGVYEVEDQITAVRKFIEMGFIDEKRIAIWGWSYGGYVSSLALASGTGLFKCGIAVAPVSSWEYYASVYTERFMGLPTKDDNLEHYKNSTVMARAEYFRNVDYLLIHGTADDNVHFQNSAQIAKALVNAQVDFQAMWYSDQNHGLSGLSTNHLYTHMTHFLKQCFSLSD
The experiment is described as follows: SPR (Biacore T200), FAP captured on anti-FAP antibody, single cycle kinetics. (In general: Surface plasmon resonance follows binding to a sensor surface in real time, without labels.)
For the molecule B1, the “pKD Category” value is above 8 pKD. B2: the “pKD Category” value was above 8 pKD.

Take B3: the “pKD Category” value is above 8 pKD. With B4, the “pKD Category” value is above 8 pKD. For the molecule B5, the “pKD Category” value is above 8 pKD. For B6, the “pKD Category” value is above 8 pKD.

Regarding B7, the “pKD Category” value was above 8 pKD. Regarding B8, the “pKD Category” value was above 8 pKD. As to B9, the “pKD Category” value was above 8 pKD. Take B10: the “pKD Category” value is above 8 pKD.

These data come from patent US20230212549A1 (3B PHARMACEUTICALS, published 2023).
